Patent US8748182B2, “Mutant proteins and methods for producing them” (Heptares Therapeutics Limited, priority 2007, dated 2014)

Assay: Thermostability of solubilised adenosine A2a receptor and mutants (radioligand binding after or during heating)
Assay type: physicochemical
Description: FIG. 12 Flow chart showing the two different assay formats of ligand (+) and ligand (−) used to determine receptor thermostablity.
• 1. 315 site-directed mutants made between residues 2-316 of A2aR. • 2. All of these mutants have been assayed for thermostability using an assay measuring agonist and antagonist binding after the heating step (Ligand(−) format as described in FIG. 12). • a. […] Mutations have been combined to generate mutants in a putative antagonist conformation. Wildtype A2aR has a Tm of 31° C. with ZM241385 bound. • a. Rant17 A54L+K122A+L235A Tm 48° C. (ZM241385 bound) • b. Rant19 A54L,T88A,V239A+A204L Tm 47° C. (ZM241385 bound) • c. Rant21 A54L,T88A,V239A+K122A Tm 49° C. (ZM241385 bound) • 4. Mutations from the agonist screen have been combined, but have led to only a very low level of improvement in Tm of +2° C.

[1] = Ligand(−) format, binding after the heating step

Row | Molecule | Tm (ZM241385 bound) (ZM241385 bound) [°C] | thermostability measured with 3H-NECA (agonist) [1] | thermostability assayed with 3H-ZM241385 (antagonist) [1]
1 | Rant19: A2aR with A54L, T88A, V239A+A204L (protein, UniProt P29274 1-412, looked up, variant A54L T88A V239A A204L) Adenosine receptor A2a: MPIMGSSVYITVELAIAVLAILGNVLVCWAVWLNSNLQNVTNYFVVSLAAADILVGVLAIPFAITISTGFCAACHGCLFIACFVLVLAQSSIFSLLAIAIDRYIAIRIPLRYNGLVTGTRAKGIIAICWVLSFAIGLTPMLGWNNCGQPKEGKNHSQGCGEGQVACLFEDVVPMNYMVYFNFFACVLVPLLLMLGVYLRIFLALRRQLKQMESQPLPGERARSTLQKEVHAAKSLAIIAGLFALCWLPLHIINCFTFFCPDCSHAPLWLMYLAIVLSHTNSVVNPFIYAYRIREFRQTFRKIIRSHVLRQQEPFKAAGTSARVLAAHGSDGEQVSLRLNGHPPGVWANGSAPHPERRPNGYALGLVSGGSAQESQGNTGLPDVELLSHELKGVCPEPPGLDDPLAQDGAGVS | 47 |  | 
2 | L208A: A2aR point mutant (protein, UniProt P29274 1-412, looked up, variant L208A) Adenosine receptor A2a: MPIMGSSVYITVELAIAVLAILGNVLVCWAVWLNSNLQNVTNYFVVSLAAADIAVGVLAIPFAITISTGFCAACHGCLFIACFVLVLTQSSIFSLLAIAIDRYIAIRIPLRYNGLVTGTRAKGIIAICWVLSFAIGLTPMLGWNNCGQPKEGKNHSQGCGEGQVACLFEDVVPMNYMVYFNFFACVLVPLLLMLGVYLRIFLAARRQAKQMESQPLPGERARSTLQKEVHAAKSLAIIVGLFALCWLPLHIINCFTFFCPDCSHAPLWLMYLAIVLSHTNSVVNPFIYAYRIREFRQTFRKIIRSHVLRQQEPFKAAGTSARVLAAHGSDGEQVSLRLNGHPPGVWANGSAPHPERRPNGYALGLVSGGSAQESQGNTGLPDVELLSHELKGVCPEPPGLDDPLAQDGAGVS |  | improved thermostability | 
3 | R199A: A2aR point mutant (protein, UniProt P29274 1-412, looked up, variant R199A) Adenosine receptor A2a: MPIMGSSVYITVELAIAVLAILGNVLVCWAVWLNSNLQNVTNYFVVSLAAADIAVGVLAIPFAITISTGFCAACHGCLFIACFVLVLTQSSIFSLLAIAIDRYIAIRIPLRYNGLVTGTRAKGIIAICWVLSFAIGLTPMLGWNNCGQPKEGKNHSQGCGEGQVACLFEDVVPMNYMVYFNFFACVLVPLLLMLGVYLAIFLAARRQLKQMESQPLPGERARSTLQKEVHAAKSLAIIVGLFALCWLPLHIINCFTFFCPDCSHAPLWLMYLAIVLSHTNSVVNPFIYAYRIREFRQTFRKIIRSHVLRQQEPFKAAGTSARVLAAHGSDGEQVSLRLNGHPPGVWANGSAPHPERRPNGYALGLVSGGSAQESQGNTGLPDVELLSHELKGVCPEPPGLDDPLAQDGAGVS |  | improved thermostability | 
4 | A203L: A2aR point mutant (protein, UniProt P29274 1-412, looked up, variant A203L) Adenosine receptor A2a: MPIMGSSVYITVELAIAVLAILGNVLVCWAVWLNSNLQNVTNYFVVSLAAADIAVGVLAIPFAITISTGFCAACHGCLFIACFVLVLTQSSIFSLLAIAIDRYIAIRIPLRYNGLVTGTRAKGIIAICWVLSFAIGLTPMLGWNNCGQPKEGKNHSQGCGEGQVACLFEDVVPMNYMVYFNFFACVLVPLLLMLGVYLRIFLLARRQLKQMESQPLPGERARSTLQKEVHAAKSLAIIVGLFALCWLPLHIINCFTFFCPDCSHAPLWLMYLAIVLSHTNSVVNPFIYAYRIREFRQTFRKIIRSHVLRQQEPFKAAGTSARVLAAHGSDGEQVSLRLNGHPPGVWANGSAPHPERRPNGYALGLVSGGSAQESQGNTGLPDVELLSHELKGVCPEPPGLDDPLAQDGAGVS |  | improved thermostability | improved thermostability
5 | A184L: A2aR point mutant (protein, UniProt P29274 1-412, looked up, variant A184L) Adenosine receptor A2a: MPIMGSSVYITVELAIAVLAILGNVLVCWAVWLNSNLQNVTNYFVVSLAAADIAVGVLAIPFAITISTGFCAACHGCLFIACFVLVLTQSSIFSLLAIAIDRYIAIRIPLRYNGLVTGTRAKGIIAICWVLSFAIGLTPMLGWNNCGQPKEGKNHSQGCGEGQVACLFEDVVPMNYMVYFNFFLCVLVPLLLMLGVYLRIFLAARRQLKQMESQPLPGERARSTLQKEVHAAKSLAIIVGLFALCWLPLHIINCFTFFCPDCSHAPLWLMYLAIVLSHTNSVVNPFIYAYRIREFRQTFRKIIRSHVLRQQEPFKAAGTSARVLAAHGSDGEQVSLRLNGHPPGVWANGSAPHPERRPNGYALGLVSGGSAQESQGNTGLPDVELLSHELKGVCPEPPGLDDPLAQDGAGVS |  | improved thermostability | 
